The numbers were not newly measured in patent US20030003565A1, “Functional lentiviral vector from an MLV-based backbone” (priority 2000, published 2003), which cites them from elsewhere.

The conditions of the data set: patients with septic shock, constant infusion for three days; 44% with placebo infusions.

B1: IL-1R: recombinant IL-1R given as constant infusion to patients with septic shock (protein, UniProt P14778 18-336, looked up)
extracellular domain: LEADKCKEREEKIILVSSANEIDVRPCPLNPNEHKGTITWYKDDSKTPVSTEQASRIHQHKEKLWFVPAKVEDSGHYYCVVRNSSYCLRIKISAKFVENEPNLCYNAQAIFKQKLPVAGDGGLVCPYMEFFKNENNELPKLQWYKDCKPLLLDNIHFSGVKDRLIVMNVAEKHRGNYTCHASYTYLGKQYPITRVIEFITLEENKPTRPVIVSPANETMEVDLGSQIQLICNVTGQLSDIAYWKWNGSVIDEDDPVLGEDYYSVENPANKRRSTLITVLNISEIESRFYKHPFTCFAKNTHGIDAAYIQLIYPVTNFQK
modifications: extracellular domain
In the case of B1, the 28 day mortality is listed as 16%.
